Molecular target: SARS-CoV-2 Spike ectodomain trimer stabilized with 2 proline mutations (S-2P) (SARS-CoV-2, Wuhan-Hu-1, stabilised)
Test: cryo-EM structure

| Binder | stoichiometry N [Fabs per S-2P trimer] |
| --- | --- |
| DH1047 Fab (Fab, V domains shown) VH: QVQLVQSGAEVKKPGASVQVSCQASANTFTNHYIHWVRQAPGQGLEWMGIIYPTGGNTIYAQGFQGRVTMTRDTSLNTIYLELSSLRSEDTAVYYCARDVRVDDSWSGYDLLSGGTYFDYWGQGTLVTVSS VL: not shown | 3 |
| DH1041 Fab (Fab, V domains shown) VH: EVQLVESGGGLVQPGGSLRLSCAASGVTFSSYWMSWVRQAPGKGLEWVANIRQDGSEKYSVDSVKGRFTISRDNAKNSLYLQMNSLRAEDTAVYYCARARRADNSGYYGFHFDCWGQGTLVTVSS VL: QSVLTQPPSVSGAPGQRVTISCTGSSSNIGAGYDVHWYQQLPGTAPKLLIYGNNNRPSGVPDRFSDSKSGTSASLAITRLQAEDEADYYCQSYDSSLSGWVFGGGTKLTVL | 3 |
